Source: the supplement of paper PMC10567573

B1: SPATS1 (parent)
chain: GRKKYDIDPRNGIPKLTPGDNPYM
B2: POMT2 (parent)
chain: VLRSRIRFIHLVTGCVLGSSGKVL
B3: APBB1IP (parent)
chain: ADPVLDLPLPPPPPEPLSQVSMWD

Variants of: B1
Assay: protein stability index of a GFP-peptide fusion (GPS, HEK-293T) (PSI 1-6); higher = more stable
Settings: c terminus: a fixed tail appended
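Further: lentivirally expressed fusions sorted by FACS into six bins by GFP to DsRed ratio, PSI derived from sequencing read proportions per bin multiplied by bin number.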

Protein stability index, by site and new letter:
P14: E 4.16, F 2.4, C 2.95
P18: Y 2.46, E 3.92, R 3.24, K 3.62
L16: G 4, E 4.32
P22: E 3.85, K 3.89, S 3.54
R2: Y 3.15
M24: F 3.1, I 3.46
K4: W 3.03, V 3.29, R 3.19
G19: M 2.81
T17: V 3.2, F 2.72
N11: E 3.82, D 3.87, G 3.53, S 3.6
G1: W 2.78, C 2.83
I13: Q 3.68
D20: F 2.33
K3: S 3.25
D8: H 2.82, F 2.84, Y 2.68
D6: P 3.49, T 3.16
P9: A 3.44, M 3.28
K15: D 3.88, V 3.29
G12: P 3.9, T 3.22, K 3.58, N 3.21
Y23: Q 4.56, N 4.43

Variants of: B2
Assay: as above
Settings: c terminus: a fixed tail appended

Protein stability index: each site, then its substitutions
R5: Y 2.99
F8: I 3.13, W 2.35, K 2.4, Q 1.67, P 1.48, V 2.68, C 3.6, H 2.79, A 1.04, D 1.88, E 1.76, R 2.11, G 1.66, T 2.35, S 1.57, N 1.9
T13: P 4.82, D 2.35, F 1.64, G 1.51, E 2.08, L 3.22, A 2.01, K 2.22, H 2.02, Y 3.54, I 2.31, Q 2.86, V 3.37
C15: S 3.04, F 1.72, K 3.31, Y 3.56, G 3.07, V 4.18, I 1.67, A 3.27, N 1.4, R 2.13, M 2.21, T 1.4, P 2.12, W 2.95, E 3.73
G14: S 3.28, F 3.15, L 2.46, V 4.81, Y 3.68, E 1.96, M 1.85, I 3.23, D 1.88, A 4.85, K 3.83, T 2.33, N 2.11, P 2.97, R 2.85, W 2.51
H10: L 1.87, N 2.3, I 3.35, D 2.56, A 2.56, F 3.38, Y 2.84, C 2.67, W 2.63, R 2.5, P 3.05, T 2.92, K 1.58, M 1.99, G 3.29
L11: K 2.13, C 3.74, M 1.68, N 2.07, Q 2.87, T 3.02, A 2.33, H 2.02, S 3.27, G 2.18, I 2.01, E 2.96, P 2.4, R 1.73, D 2.48
L17: S 2.9, Q 1.08, V 2.1, M 2.42, D 3.16, A 2.77, I 2.28, F 1.62, R 2.35, H 2.75, W 3.74, G 3.47, P 1.74, Y 4.34
V23: C 2.37, M 2.32, R 1.46, P 3.61, K 2.21, D 3.41, Y 2.47, E 3.48, Q 3.61, F 1.77, G 3.42
I9: G 2.62, Y 3.49, S 2.78, N 2.64, R 1.39, W 1.71, M 2.73, L 2.5, D 1.63, E 2.34, A 4.43, Q 2.87, F 1.85, V 1.5, K 2.98, C 1.74, H 4.48, P 1.42
S20: Y 2.86, W 2.12, M 1.28, D 2.12, F 1.43, V 1.85, H 2.64, L 2.12, R 2.82, E 1.99, A 3.46, T 3.42, G 2.08, I 1.78, P 1.69, C 3.22, Q 3.58
L24: I 4.08, M 2.42, Y 2.18, S 2.75, E 3.25, H 3.1, N 1.89, W 4.21, G 3.89, D 2.33, R 2.92
V12: R 2.65, H 2.88, K 3.48, L 2.13, C 2.2, S 2.53, P 2.25, N 3.83, W 1.94, F 3.19, I 2.81, E 4.33, Q 1.05, M 3.2, T 4.51, G 1.84
K22: H 2.37, S 2.57, P 1.99, L 2.69, V 3.02, D 3.31, C 2.73, Y 2.74, W 3.35, F 2.53, A 2.25
V16: I 1.6, F 1.63, G 2.39, M 3.73, H 3.17, L 3.58, Q 2.89, E 2.4, R 4.75, P 4.02, N 3.21, C 2.73, Y 3.11, W 2.43, D 2.73, K 3.78
G18: N 4.13, C 2.32, M 2.78, E 2.45, A 2.35, S 3.06, R 2.35, T 2.14, I 2.37, V 1.38, K 2, L 2.69, D 1.67
I6: Y 3.93, H 2.53, P 3.19, S 1.83, C 4.38, E 2.45, D 1.89, L 2.83, F 3.11, A 1.64, R 1.78, M 2.88, G 2.81, T 1.3, V 3.12, K 2.08
G21: L 3.1, P 2.65, M 3.38, S 3.83, A 2.99, W 2.96, I 1.98, R 2.47, T 2, H 3.14, E 3.64, F 2.53, Q 3.44, V 2.17, N 2.47, C 3.88, D 3.45
R7: M 3.48, D 1.59, L 2.52, P 2.44, G 2.67, Y 2.4, C 2.94, N 2.44, E 2.94, H 3.62, W 2.28, V 2.05, K 3.58, A 3.22, T 3
S19: N 2.73, C 2.51, P 3.18, L 1.78, A 1.93, R 2.41, F 2.63, K 1.67, G 1.99, I 2.59, W 2.66, D 3.66, T 3.6, V 2.73, M 3.45

Variants of: B3
Assay: as above
Settings: c terminus: a fixed tail appended

Protein stability index of substitutions, site by site:
P11: E 4.69, V 4.43, K 4.69
P13: K 4.6, E 4.96, V 3.84, R 4.37, W 3.8
